Results on 3 substances are retold here after patent publication US20230035235A1.

Experiment [1] addresses SMARCA4 (entry Q9HBD4) (human). Nature of the experiment: HA affinity purification of HA-SMARCD1 mSWI/SNF complexes from HEK-293T nuclear extract, glycerol gradient fraction 15, mass spectrometry; co-purification in the complex, not necessarily direct contact.
The target in experiment [2] is DPF1 (entry E9PDV3) (human). The description is as above.
In a further experiment the target is BRD7 (human) (UniProt Q9NPI1). Nature of the experiment: HA affinity purification from HEK-293T nuclear extract, glycerol gradient fraction 15, mass spectrometry (co-purification in the complex).
A further experiment has as its target BRD9 (human) (UniProt Q9H8M2). The experiment is described as above.
For experiment [3], the target named is BCL7A (human) (UniProt Q4VC05). Described as above.
Another experiment deals with DPF3 (human) (UniProt Q92784). The description is as above.
The target of experiment [4] is ACTL6A (human) (UniProt O96019). Described as above.
The target of another experiment is PHF10 (human) (UniProt Q8WUB8). The description is as above.
The target in experiment [5] is BCL7C (human) (UniProt Q8WUZ0). The experiment is described as above.
Experiment [6] has as its target SMARCB1 (human) (UniProt Q12824). The experiment is described as above.
Experiment [7] addresses SS18L1 (human) (UniProt O75177). The experiment is described as above.
For the next experiment, the target named is GLTSCR1 (human) (UniProt Q9NZM4). The description is as above.
The next experiment deals with DPF2 (human) (UniProt Q92785). The description is as above.
The next experiment deals with GLTSCR1L (human) (UniProt Q6AI39). The description is as above.
In another experiment the target is DPF1 (human) (UniProt Q92782). The experiment is described as above.
A further experiment concerns the target PBRM1 (human) (UniProt Q86U86). Described as above.
For experiment [8], the target named is DPF2 (Double PHD Fingers 2) (human) (UniProt Q92785). Nature of the experiment: colloidal blue stain and fluorometric analysis of DPF2-purified complexes.
For a further experiment, the target named is SMARCE1 (human) (UniProt Q969G3). Nature of the experiment: HA affinity purification of HA-DPF2 from HEK-293T nuclear extract, glycerol gradient fraction 14, mass spectrometry of co-purified proteins.
In experiment [9] the target is BCL7A (human) (UniProt Q4VC05). Described as above.
Experiment [10] concerns the target ACTL6A (human) (UniProt O96019). The description is as above.
The target of experiment [11] is BCL7C (human) (UniProt Q8WUZ0). The description is as above.
The target in experiment [12] is SMARCB1 (human) (UniProt Q12824). Described as above.
The target in experiment [13] is SS18L1 (human) (UniProt O75177). The description is as above.
The target in another experiment is SMARCD2 (human) (UniProt Q92925). The description is as above.
Another experiment concerns the target SS18 (human) (UniProt Q15532). The experiment is described as above.
For another experiment, the target named is SMARCD1 (human) (UniProt Q96GM5). The description is as above.
SMARCD1 (human), sequence (Q96GM5 whole entry): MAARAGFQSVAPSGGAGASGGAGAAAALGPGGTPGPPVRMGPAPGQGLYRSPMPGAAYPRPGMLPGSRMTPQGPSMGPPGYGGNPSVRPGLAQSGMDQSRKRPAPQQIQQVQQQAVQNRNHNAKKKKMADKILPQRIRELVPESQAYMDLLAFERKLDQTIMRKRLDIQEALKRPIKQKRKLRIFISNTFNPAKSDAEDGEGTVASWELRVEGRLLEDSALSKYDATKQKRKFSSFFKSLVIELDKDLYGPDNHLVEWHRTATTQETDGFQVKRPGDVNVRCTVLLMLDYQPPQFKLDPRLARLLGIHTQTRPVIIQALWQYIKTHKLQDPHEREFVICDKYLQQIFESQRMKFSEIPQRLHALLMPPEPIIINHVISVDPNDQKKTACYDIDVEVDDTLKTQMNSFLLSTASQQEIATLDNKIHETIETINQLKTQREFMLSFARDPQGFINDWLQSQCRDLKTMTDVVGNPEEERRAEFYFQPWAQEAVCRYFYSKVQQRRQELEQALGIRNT

ACTL6A (human), sequence (O96019 2-429 limits assumed): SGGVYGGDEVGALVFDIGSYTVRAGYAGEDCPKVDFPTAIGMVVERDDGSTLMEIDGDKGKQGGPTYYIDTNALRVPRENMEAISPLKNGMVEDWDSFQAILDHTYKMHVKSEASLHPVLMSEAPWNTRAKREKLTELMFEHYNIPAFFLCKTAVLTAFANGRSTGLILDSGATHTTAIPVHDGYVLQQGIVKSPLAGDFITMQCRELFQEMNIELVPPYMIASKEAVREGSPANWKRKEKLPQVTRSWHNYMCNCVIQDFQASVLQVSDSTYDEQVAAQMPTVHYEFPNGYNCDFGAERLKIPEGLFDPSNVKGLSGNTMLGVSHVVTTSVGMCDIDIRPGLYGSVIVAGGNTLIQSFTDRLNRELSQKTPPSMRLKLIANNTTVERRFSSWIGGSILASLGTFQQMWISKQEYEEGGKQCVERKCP
BCL7A (human), sequence (Q4VC05 whole entry): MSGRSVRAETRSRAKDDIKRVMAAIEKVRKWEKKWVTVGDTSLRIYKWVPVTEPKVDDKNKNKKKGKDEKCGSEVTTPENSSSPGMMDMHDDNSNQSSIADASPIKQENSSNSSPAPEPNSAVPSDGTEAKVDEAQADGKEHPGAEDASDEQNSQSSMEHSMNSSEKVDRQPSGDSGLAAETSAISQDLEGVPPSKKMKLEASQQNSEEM
SMARCB1 (human), sequence (Q12824 whole entry): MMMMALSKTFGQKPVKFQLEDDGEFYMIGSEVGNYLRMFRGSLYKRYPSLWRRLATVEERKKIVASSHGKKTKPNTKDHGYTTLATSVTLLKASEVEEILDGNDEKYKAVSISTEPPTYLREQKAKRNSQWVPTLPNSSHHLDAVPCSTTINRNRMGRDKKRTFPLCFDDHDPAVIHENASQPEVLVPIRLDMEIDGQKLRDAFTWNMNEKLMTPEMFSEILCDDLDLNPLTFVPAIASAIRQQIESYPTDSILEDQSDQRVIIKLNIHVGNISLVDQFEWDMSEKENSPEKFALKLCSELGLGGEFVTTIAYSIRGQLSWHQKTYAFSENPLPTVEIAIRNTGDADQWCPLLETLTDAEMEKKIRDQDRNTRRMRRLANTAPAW
SS18L1 (human), sequence (O75177 whole entry): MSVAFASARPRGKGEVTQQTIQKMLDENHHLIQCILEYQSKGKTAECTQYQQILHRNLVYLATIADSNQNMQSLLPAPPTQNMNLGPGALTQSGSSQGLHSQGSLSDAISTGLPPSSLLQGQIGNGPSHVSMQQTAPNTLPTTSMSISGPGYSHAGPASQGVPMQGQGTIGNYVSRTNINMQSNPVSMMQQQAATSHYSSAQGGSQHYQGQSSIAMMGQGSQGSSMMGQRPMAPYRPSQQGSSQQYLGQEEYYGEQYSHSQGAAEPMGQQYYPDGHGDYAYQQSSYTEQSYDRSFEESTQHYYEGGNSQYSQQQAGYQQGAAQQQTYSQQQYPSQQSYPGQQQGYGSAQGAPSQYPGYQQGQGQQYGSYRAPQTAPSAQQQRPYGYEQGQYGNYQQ
SMARCD2 (human), sequence (Q92925 whole entry): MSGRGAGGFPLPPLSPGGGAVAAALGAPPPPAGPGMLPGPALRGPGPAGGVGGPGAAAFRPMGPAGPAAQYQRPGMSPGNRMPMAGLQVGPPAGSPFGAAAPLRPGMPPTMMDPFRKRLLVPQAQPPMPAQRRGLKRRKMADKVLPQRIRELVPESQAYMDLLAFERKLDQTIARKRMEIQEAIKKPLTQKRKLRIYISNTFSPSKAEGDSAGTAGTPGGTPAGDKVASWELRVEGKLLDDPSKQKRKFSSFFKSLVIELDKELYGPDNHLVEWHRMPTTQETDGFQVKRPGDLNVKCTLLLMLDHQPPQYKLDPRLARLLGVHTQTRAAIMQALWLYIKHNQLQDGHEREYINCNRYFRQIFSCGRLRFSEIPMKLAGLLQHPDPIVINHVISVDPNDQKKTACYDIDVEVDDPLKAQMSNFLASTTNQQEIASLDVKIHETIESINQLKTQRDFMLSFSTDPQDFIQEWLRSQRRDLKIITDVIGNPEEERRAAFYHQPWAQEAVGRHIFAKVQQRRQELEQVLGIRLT
SS18 (human), sequence (Q15532 2-418 limits assumed): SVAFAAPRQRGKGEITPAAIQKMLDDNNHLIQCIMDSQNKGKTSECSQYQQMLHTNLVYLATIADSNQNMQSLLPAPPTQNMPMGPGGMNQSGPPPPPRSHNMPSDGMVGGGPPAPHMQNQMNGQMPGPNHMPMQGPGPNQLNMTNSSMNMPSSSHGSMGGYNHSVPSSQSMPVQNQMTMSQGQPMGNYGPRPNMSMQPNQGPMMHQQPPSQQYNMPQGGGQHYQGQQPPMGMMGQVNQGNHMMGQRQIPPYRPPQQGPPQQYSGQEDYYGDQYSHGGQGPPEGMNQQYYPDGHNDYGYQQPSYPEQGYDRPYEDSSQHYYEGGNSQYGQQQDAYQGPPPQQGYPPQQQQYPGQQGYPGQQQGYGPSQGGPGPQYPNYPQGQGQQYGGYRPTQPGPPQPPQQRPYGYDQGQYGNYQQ
GLTSCR1 (human), sequence (Q9NZM4 whole entry): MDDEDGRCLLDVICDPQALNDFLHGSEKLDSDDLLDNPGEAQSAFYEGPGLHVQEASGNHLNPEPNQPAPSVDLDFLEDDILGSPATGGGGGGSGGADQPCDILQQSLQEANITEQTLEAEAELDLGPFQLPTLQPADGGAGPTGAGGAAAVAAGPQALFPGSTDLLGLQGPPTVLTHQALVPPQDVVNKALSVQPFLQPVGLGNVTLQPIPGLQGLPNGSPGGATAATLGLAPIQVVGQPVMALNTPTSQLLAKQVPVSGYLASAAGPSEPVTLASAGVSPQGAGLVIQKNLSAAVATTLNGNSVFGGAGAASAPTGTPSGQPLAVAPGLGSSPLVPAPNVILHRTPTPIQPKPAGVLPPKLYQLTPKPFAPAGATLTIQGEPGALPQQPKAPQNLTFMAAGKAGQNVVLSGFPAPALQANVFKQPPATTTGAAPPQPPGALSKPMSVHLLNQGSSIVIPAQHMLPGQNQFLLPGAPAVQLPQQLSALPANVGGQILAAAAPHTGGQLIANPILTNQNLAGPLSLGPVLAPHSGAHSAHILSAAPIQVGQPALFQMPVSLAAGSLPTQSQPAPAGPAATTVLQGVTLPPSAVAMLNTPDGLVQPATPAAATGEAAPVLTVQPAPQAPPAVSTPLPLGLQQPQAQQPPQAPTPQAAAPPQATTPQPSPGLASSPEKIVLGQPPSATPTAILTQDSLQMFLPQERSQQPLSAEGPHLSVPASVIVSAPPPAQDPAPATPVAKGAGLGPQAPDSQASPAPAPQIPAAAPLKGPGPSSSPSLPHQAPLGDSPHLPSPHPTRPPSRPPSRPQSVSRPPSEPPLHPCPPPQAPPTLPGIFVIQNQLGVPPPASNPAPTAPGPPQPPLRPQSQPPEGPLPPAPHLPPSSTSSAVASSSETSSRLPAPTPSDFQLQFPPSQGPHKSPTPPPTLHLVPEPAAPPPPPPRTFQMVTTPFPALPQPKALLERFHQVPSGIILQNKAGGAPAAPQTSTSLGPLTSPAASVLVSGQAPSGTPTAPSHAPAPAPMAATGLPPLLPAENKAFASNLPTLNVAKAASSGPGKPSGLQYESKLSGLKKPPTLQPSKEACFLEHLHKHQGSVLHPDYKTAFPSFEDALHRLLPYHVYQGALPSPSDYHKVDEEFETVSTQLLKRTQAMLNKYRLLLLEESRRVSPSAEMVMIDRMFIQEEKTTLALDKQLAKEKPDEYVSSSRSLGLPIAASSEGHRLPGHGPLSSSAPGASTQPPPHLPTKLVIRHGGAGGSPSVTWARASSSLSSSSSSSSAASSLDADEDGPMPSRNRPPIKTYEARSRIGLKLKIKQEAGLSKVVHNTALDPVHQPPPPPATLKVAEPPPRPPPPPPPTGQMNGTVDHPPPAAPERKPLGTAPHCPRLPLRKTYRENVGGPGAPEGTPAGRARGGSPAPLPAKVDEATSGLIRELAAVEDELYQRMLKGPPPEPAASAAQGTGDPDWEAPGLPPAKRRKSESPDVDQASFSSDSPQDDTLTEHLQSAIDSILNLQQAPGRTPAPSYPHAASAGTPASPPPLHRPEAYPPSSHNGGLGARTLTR
SMARCE1 (human), sequence (Q969G3 whole entry): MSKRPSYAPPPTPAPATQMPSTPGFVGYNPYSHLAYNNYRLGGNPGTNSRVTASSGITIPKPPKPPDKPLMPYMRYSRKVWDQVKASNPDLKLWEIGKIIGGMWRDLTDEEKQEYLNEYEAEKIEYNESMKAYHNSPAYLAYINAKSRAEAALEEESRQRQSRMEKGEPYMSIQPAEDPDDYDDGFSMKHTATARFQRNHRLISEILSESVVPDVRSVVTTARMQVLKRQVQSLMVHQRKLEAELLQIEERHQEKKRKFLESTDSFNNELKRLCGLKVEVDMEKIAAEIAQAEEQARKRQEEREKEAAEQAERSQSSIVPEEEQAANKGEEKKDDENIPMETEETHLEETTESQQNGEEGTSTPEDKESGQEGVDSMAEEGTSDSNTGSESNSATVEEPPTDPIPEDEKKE

For HA-SMARCD1 (from UniProt Q96GM5 1-515), the total peptides in experiment [1] amounted to 1; in experiment [2] it was 1; with BRD7 (human), 29 peptides; in the experiment with BRD9 (human), 8 peptides; in the experiment with BCL7A (human) [3] it was 33 peptides; in the experiment with DPF3 (human) it was 12 peptides. Further, the total peptides was found to be 58 peptides with ACTL6A (human) [4]; 14 peptides in the experiment with PHF10 (human); 19 peptides with BCL7C (human) [5]; 75 peptides with SMARCB1 (human) [6]; 2 peptides in the experiment with SS18L1 (human) [7]; 11 peptides with GLTSCR1 (human). Besides, the total peptides with DPF2 (human) turned out to be 41 peptides; with GLTSCR1L (human), 1 peptides; with DPF1 (human) it was 7 peptides; with PBRM1 (human) it was 115 peptides. Besides, the unique peptides worked out at 1 in [1]; 1 in [2]; 19 peptides in the experiment with BRD7 (human); 8 peptides with BRD9 (human); 12 peptides with BCL7A (human) [3]; 10 peptides with DPF3 (human). Also, the unique peptides was found to be 14 peptides with PHF10 (human); 8 peptides with BCL7C (human) [5]; 2 peptides in the experiment with SS18L1 (human) [7]; 10 peptides in the experiment with GLTSCR1 (human); 19 peptides with DPF2 (human); 1 peptides with GLTSCR1L (human). For the same substance, the unique peptides was determined as 6 peptides in the experiment with DPF1 (human) and 79 peptides with PBRM1 (human).
In [8], “SMARCC2 (SWI/SNF related, matrix associated, actin dependent regulator of chromatin subfamily c member 2) (from UniProt Q8TAQ2 1-1214)” registered a stoichiometry relative to DPF2 bait (copies per DPF2) of 1.
For the substance HA-DPF2 (from UniProt Q92785 1-391), the total peptides with SMARCE1 (human) came to 118 peptides; in the experiment with BCL7A (human) [9], 36 peptides; in the experiment with ACTL6A (human) [10], 61 peptides; with BCL7C (human) [11], 13 peptides; in the experiment with SMARCB1 (human) [12], 62 peptides; with SS18L1 (human) [13], 3 peptides. In addition, the total peptides in the experiment with SMARCD2 (human) was 51 peptides; with SS18 (human), 2 peptides; in the experiment with SMARCD1 (human), 83 peptides. In addition, the unique peptides in the experiment with SMARCE1 (human) was 40 peptides; in the experiment with ACTL6A (human) [10], 23 peptides; with BCL7C (human) [11], 7 peptides; with SMARCB1 (human) [12], 22 peptides; with SS18L1 (human) [13], 2 peptides; with SMARCD2 (human) it was 32 peptides. In addition, the results for the unique peptides in the experiment with SS18 (human) and with SMARCD1 (human) were 2 peptides and 37 peptides, respectively.
